The numbers were not newly measured in article PMC4664829, which cites them from elsewhere.

The target of series [1] is T1, Glu14 (UniProt position 14, GAILAEVIGTT). Kind of series: kinetics. To be noted: TPP+ association with substrate-free EmrE.
Series [2] addresses T1, Glu14. To be noted: proton release from EmrE.

Where two headings read alike, the source gives them in different places.

“EmrE (small multidrug resistance transporter) (Escherichia coli)”: the pKa was 7.3 with Glu14 [1] and 8.4 in the series with Glu14 [2].

The pKa is the pH at which an ionisable group is half protonated.
